Data from patent US20240175877A1 (GENERAL HOSPITAL, published 2024).

Columns and labels:
Ara h 2 [1] = target: T1, Ara h 2 (peanut, UniProt Q6PSU2 23-172, 4-hydroxyproline at positions 67, 74, and 86; biotinylated in the BLI assays); assay: epitope bin summary
T1 construct: BLI: biotinylated (native) Ara h 2 on streptavidin sensors; also called conglutin-7; peanut allergen
T1 sequence: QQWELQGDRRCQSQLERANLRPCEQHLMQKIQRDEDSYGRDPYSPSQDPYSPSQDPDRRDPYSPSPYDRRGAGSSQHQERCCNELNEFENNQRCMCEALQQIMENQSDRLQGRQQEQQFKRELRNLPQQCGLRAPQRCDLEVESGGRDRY

Peptide_009 = target: T2, Peptide_009 (peanut); assay: peptide microarray
T2 construct: also called peptide 9
T2 peptide: WELQGDRRCQSQLER
Experimental: (§1) The peptide mapping using microarrays was performed with 40 antibody samples diluted 1:1000 in blocking buffer (see below). Sample dilutions were incubated for 1 hour at 30° C. on multiwell microarray slides. The slides contained 21 individual mini-arrays (1 mini-array per sample dilution).
(§2) Subsequent to sample incubation, secondary fluorescently labeled anti-human-IgG antibody at 1 μg/ml was added into the corresponding wells and left to react for 1 hour.
(§3) Additional control incubations applying the secondary antibody only was performed in parallel on the microarray slides to assess false-positive binding to peptides.

Peptide_012 = target: T3, Peptide_012 (peanut); assay: peptide microarray
T3 construct: also called peptide 12
T3 peptide: QSQLERANLRPCEQH
Experimental: as §1, §2, §3

Peptide_011 = target: T4, Peptide_011 (peanut); assay: peptide microarray
T4 construct: also called peptide 11
T4 peptide: RRCQSQLERANLRPC
Experimental: as §1, §2, §3

Peptide_010 = target: T5, Peptide_010 (peanut); assay: peptide microarray
T5 construct: also called peptide 10
T5 peptide: QGDRRCQSQLERANL
Experimental: as §1, §2, §3

Ara h 2 [2] = target: T1, Ara h 2; assay: SPR, Biacore 3000
Experimental: Calculated equilibrium dissociative constants (K)) for antigen binding to anti-Ara h 2 antibodies was determined using a real-time surface plasmon resonance biosensor (Biacore 3000) assay.

Ara h 2 [3] = target: T1, Ara h 2; assay: epitope summary

B1: 15FU1P3A1 (antibody, IgG1, V domains shown)
VH: LVQSGAEVKKPGASVKVSCKASGYTFTRYDINWVRQATGQGLEWMGWMNPKSGETGYAQKFHGRVIMSWNTSISTAYMELSSLRSEDTAVYYCTRGVDSGVWGQGTTVTVSS
VL: TQSPDSLAVSLGERATINCKSSQSVLDSSNNKKFLAWFQQKPGQRPKLLIYWASTRESGVPDRFTGSGSGTDFTLTISSLQAEDVAVYYCQQYYSPPHTFGQGTKLEIK
notes: recombinant IgG1
binding result (Ara h 2 [1]): binds
binding result (Peptide_009): binds
binding result (Peptide_012): binds
binding result (Peptide_011): binds
binding result (Peptide_010): binds

B2: 13BU2T3 (antibody, IgG1, V domains shown)
VH: GGGVVQPGTSLRLSCVASGFTFRDYSMHWVRQAPGKGLEWVSFIRFDGTTKDYRDSVKGRFIISRDDSKNTLYLQMTSLRVEDTALYYCAKDNGWRAFDHWGQGALVTVSS
VL: VMTQSPLSLPVTPGEAASISCRSSQSLLHRNGYIYLDWYLQRPGQSPQLLISFVSKRASGAPDRFSGSGSGTDFTLTISRVEAEDFGVYFCMQALETPWTFGPGTKLEIK
notes: recombinant IgG1
Kd (Ara h 2 [2]): 0.193 nM

B3: 23BU2P3 (antibody, IgG1, V domains shown)
VH: QVQLVESGGGLVQPGRSLRLSCAASGFIFADYTMHWVRQSPGKDLEWVSRISWNSGGVEYADSVKGRFTISRDNAKNSLYLQMNSLRVEDTALYYCVKDNGYRAFDLWGLGTMVTVSS
VL: DVVMTQSPVSLPVTPGEPASISCRSSQSLVHSNGYNYLDWYLQKPGQSPQLLIYMGSNRASGVPDRFSGSGSGTDFTLKISRVEAEDVGVYYCMQSLQTWTFGQGTKVEIK
notes: recombinant IgG1
binding result (Ara h 2 [3]): binds

B4: 13BU2T4 (antibody, IgG1, V domains shown)
VH: ESGPRLVKPSETLSLTCIVSGDSISSYYWGWIRQPAGRGLEWIGRIFTSGSTTYNPSLKSRVSMSVETSKNQFSLTLTSVTAADTAVYFCARDRRALSSDGNWYWYFDLWGRGTLVAVSS
VL: TQSPSSLSASVGDRVTITCRASQTITRNLNWYQQKSGEAPKLLIYGASILQSGVPSRFTGSGSGTDFTLTISNLQPEDFASYSCQQSDNTPRTFGQGTKVEIK
notes: recombinant IgG1
Kd (Ara h 2 [2]): 0.00143 nM

B5: 23BU2P31 (antibody, IgG1, V domains shown)
VH: QVQLQESGPGLVEPSETLSLTCTVSGDPFTSYYWTWIRQPAGKGLEWLGRIFTTGSTSYNPSLKSRVTMSVDTSKSQFSLKLTAVTAADTAVYYCARVRRYCSGGRCYPYFYMDVWGKGTTVIVSS
VL: DIRETQSPSTLSASVGDRVTITCRASESISSWLAWYQQKPGKAPKLLIYEASTLETGVPSRFSGSGSGTEFTLTIRSLQPDDFATYYCQHYNSDSLTFGGGTKVEIK
notes: recombinant IgG1
binding result (Ara h 2 [3]): binds

B6: 23BU2P34 (antibody, IgG1, V domains shown)
VH: QVQLVESGGLVVQPGGSLRLSCEASGFTFDDYTMHWVRQSPQKGLEWVSLIRWDGSRTEYADSVKGRFTISRDNSKNSLYLQMNTLRADDSAFYFCVKDGGLRYFDSWGQGTLVTVSS
VL: EIVMTQSPLSLPVTPGEPASISCRSSQSLLHSNGIHYLDWYLQKPGQSPQLLIYLGSKRASGVPDRFSGSGSGTDFTLKISRVEAEDVGVYYCMQSLQTFTFGPGTKVDIK
notes: recombinant IgG1
binding result (Ara h 2 [3]): binds

B7: 22BU2S4 (antibody, IgG1, V domains shown)
VH: RCKLQESGPGLVKPSESLSLTCNVSGMSISSYYWSWIRQPAGKGLEWIGRIFTTGSTKDNPSLKSRVTMSVDTSRNQFSLTLTSVTAADTAVYYCARLRRVVVPRVSWYFDLWGHGTLVTVSS
VL: TQSPSSLSASVGDRVTITCQASQDISKSLNWYHQKPGKAPTVLIYDASNLETGVPSRFSGSGSGTEFTFTISSLQSEDFGTYYCQQYDNVPMYTFGQGTKVETK
notes: recombinant IgG1
binding result (Ara h 2 [3]): binds

B8: 13FU1P1A4 (antibody, IgG1, V domains shown)
VH: VQLVESGGTLGQPGGSLRLSCTASGFTFNRFAINWVRQAPGKGLEWVAAISGTGAVTYYADSVEGRFSISRENSNNTVFLEMNNLRGEDTAVYFCAKDRTPVTNYYGMDVWGQGTTVTVSS
VL: TQSPSSLSASVGDRVIITCRGSQTIDNYLNWYQQKPGKAPRLLISAASSLQGGVPSRFSGSGYGTDFTLTISSLQPEDFATYYCQQTSSTPYTFGQGTKVEIK
notes: recombinant IgG1
binding result (Ara h 2 [1]): binds

B9: 14FU2P1D6 (antibody, IgG1, V domains shown)
VH: ESGPGLVKPSETLSLTCTVSGDSISSYYWSWIRQPAGKGLEWIGRIFTSGSTNINPSLKSRVTMSVDTSKNQFSLQLGSVTAADTAIYYCAKHTRDFWSDDSRVHWYFNLWGRGTLVTVSS
VL: QSPGTLSLSPGERATLSCRASQSVSNNFLAWYQQQPGQAPSLLIYGASTRATGIPDRFSGSGSGTDFTLTISRLEPEDFAVYFCQQYDSSPYTFGQGTKLEIK
notes: recombinant IgG1; also called 14FU1P1D6
binding result (Ara h 2 [1]): binds

B10: 15FU1P1A3 (antibody, V domains shown)
VH: QSGAEVKKPGASVKISCKASGYTFTTYAMHWVRQAPGQRLEWMGGINAGNGNPKYSEKFQDRVTITRDTSATTAYMELSSLRSEDTAVYYCARDAAGTRGNWLDPWGQGTLVTVSS
VL: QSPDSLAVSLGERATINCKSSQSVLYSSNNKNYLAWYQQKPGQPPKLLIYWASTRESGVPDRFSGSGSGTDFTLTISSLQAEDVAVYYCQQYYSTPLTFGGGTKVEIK
notes: recombinant IgG1
binding result (Ara h 2 [1]): binds

B11: 27FU1P3A4 (antibody, IgG1, V domains shown)
VH: ESGGGLVQPGGSLRLSCVASGFPFDDFVFAWVRQAPGGGLEWVSAISSRRTNTFYADSVKGRFTISRDNTRKTVNLQMNSLRGEDTAVYYCAKGETRYLEWIIQSSGFDYWGPGTLVAVSS
VL: QSPSSLSASVGERVTITCRANQTISTYLNWYQQKVGKAPKSLIRAASSLESGVPSRFSGSGSGTDFTLTINSLQREDFATYYCQQTYNVPPTFGQGTRVELK
notes: recombinant IgG1
binding result (Ara h 2 [1]): binds

B12: 6BU4P2B1 (antibody, IgG1, V domains shown)
VH: VESGGGLIQPGRSLRLSCAVSGFSFDDYAMYWVRQVPGKGLEWVSGISWNSGTIEYADSVKGRFTISRDNAKKSLFLEMNSLRSEDTAIYYCAKGTGWELVSALENWGQGTVVTVSS
VL: QSPSSLSASVGNKVTITCRASQTISDYLNWYQQKPGKAPKLLIYAASSLQSAVPSRFAGSGSGTEFTLTISSLQPEDFATYYCQQSYSPPFTFGPGTKVDIK
notes: recombinant IgG1
binding result (Ara h 2 [1]): binds

B13: 11FUP1A2 (antibody, IgG1, V domains shown)
VH: ESGGAVVQPGGSLRLSCAASGFTVEDYTIHWVRQVPGKGLEWISLISWDGDRTAYTDSVKGRFTISRDNIKNSLYLLMNSLRTEDTALYYCVKDNGWRSFAYWGQGILVTVST
VL: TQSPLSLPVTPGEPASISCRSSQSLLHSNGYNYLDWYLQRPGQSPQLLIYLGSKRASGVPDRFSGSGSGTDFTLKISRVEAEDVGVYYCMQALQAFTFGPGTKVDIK
notes: recombinant IgG1
binding result (Ara h 2 [1]): binds

B14: 89BU7P1B10 (antibody, IgG1, V domains shown)
VH: QESGPGLVKPSETLSLTCTVSGGSIGRHYWSWIRQPPGKGLEWIAYIYDSGSTKYNPSLESRVTISEDTSQNQFSLKLTSVTAADTAIYYCARHNAPYGGNSDDYFEFWGPGTLVTVSS
VL: TQSPSSLSASVGDRVTITCRANETISDYLNWYQGKPGTAPKPLIYAASSLQSGVPSRFSGSGSETYFTLTISSLQPEDFATYYCQQSYSVPLTFGGGTKVESK
notes: recombinant IgG1
binding result (Ara h 2 [1]): binds

B15: 13BU2T5 (antibody, V domains shown)
VH: QVQLQESGPGLVKPSETLSLTCTVSGGSMSSYYWGWIRQPAGRGLEWIGRIFTTGSTIYNASLNSRVSMSVDTSKNQFSLKLTSVTAADTALYFCVRDRRGRSHDSNWYWYFDLWGRGTLVTVSS
VL: RVIITCRASQTLSRNLNWYQQKPGEAPKLLIYGASTLQSGVPSRFTGSGSGTDFTLIISGLQPEDFATYYCQQSDNTPRTFGQGT
Kd (Ara h 2 [2]): 0.112 nM
